Experimental data: US20030165489A1

Legend:
SP (substance P) [1] = target: T1, SP (substance P) (UniProt P20366)
T1 sequence: RPKPQQFFGLM

SP (substance P) [2] = target: SP (substance P) (UniProt P20366); assay: cell-based or functional assay

Substance	degradation of SP identified by mass-spectrometry (SP (substance P) [1])	diminution of SP-evoked vasodilatory response (100 pg SP, pig in vivo, after 50 µg DPPIV) (SP (substance P) [2]) [%]	diminution of SP-evoked vasodilatory response (1 ng SP, pig in vivo, after 50 µg DPPIV) (SP (substance P) [2]) [%]
Recombinant dipeptidyl peptidase IV (DPPIV), soluble form secreted from Aspergilus Fumigatus	SP (1.8 µg) co-incubated with 0.016 µg of DPPIV for ten minutes at 37 °C is degraded to SP5-11		
Recombinant dipeptidyl peptidase IV (DPPIV), soluble form secreted from Aspergilus Fumigatus (enzyme)		66	71
